The values below are quoted from earlier work in publication PMC9739371, “Deciphering the Binding of the Nuclear Localization Sequence of Myc Protein to the Nuclear Carrier Importin α3” (International Journal of Molecular Sciences, 2022).

The data set addresses NLS-Myc (GFP fusion) NLS (Homo sapiens) (UniProt P01106).

Chain of NLS-Myc (GFP fusion) NLS (Homo sapiens) (P01106 whole entry, looked up, the tested form may be a part): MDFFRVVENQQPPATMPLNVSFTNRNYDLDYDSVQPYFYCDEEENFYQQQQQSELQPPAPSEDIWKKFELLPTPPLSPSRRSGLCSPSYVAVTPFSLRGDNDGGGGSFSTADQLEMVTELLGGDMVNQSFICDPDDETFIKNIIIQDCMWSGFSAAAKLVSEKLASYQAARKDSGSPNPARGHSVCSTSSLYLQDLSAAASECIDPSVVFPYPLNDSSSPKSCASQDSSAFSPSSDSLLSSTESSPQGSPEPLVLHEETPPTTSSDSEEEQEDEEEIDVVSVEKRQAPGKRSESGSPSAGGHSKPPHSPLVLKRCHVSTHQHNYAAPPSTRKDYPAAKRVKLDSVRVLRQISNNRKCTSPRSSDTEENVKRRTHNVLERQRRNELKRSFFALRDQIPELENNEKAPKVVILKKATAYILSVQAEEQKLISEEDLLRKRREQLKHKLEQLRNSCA
Chain of yeast ΔImpα ΔIBB (Q02821 1-68, stated change not applied): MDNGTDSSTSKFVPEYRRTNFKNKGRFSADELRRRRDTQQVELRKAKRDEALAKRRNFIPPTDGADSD

In the case of yeast ΔImpα ΔIBB (from UniProt Q02821), the Kd is 6 nM.
